Laboratory results from publication PMC6965034 (2019).

B1: GST-tagged PAK1 (Y270-H545) (domain or fragment)
chain: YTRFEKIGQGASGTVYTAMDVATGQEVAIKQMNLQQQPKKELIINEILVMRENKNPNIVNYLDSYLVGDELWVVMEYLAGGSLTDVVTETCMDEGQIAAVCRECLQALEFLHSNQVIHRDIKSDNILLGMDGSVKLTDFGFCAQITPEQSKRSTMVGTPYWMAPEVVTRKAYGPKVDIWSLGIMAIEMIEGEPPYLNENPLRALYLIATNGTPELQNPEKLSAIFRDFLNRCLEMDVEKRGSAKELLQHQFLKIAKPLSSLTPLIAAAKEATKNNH
B2: complete sortilin cytoplasmic domain (K779-E831), GST tag removed (domain or fragment)
chain: KKYVCGGRFLVHRYSVLQQHAEANGVDGVDALDTASHTNKSGYHDDSDEDLLE

Assays:
Experiment in all cases: ITC
sortilin-cd peptide C = sortilin-cd peptide C (human)
sortilin-cd peptide B = sortilin-cd peptide B (human)
sortilin-cd peptide A = sortilin-cd peptide A (human)
[1] = target: B1

Sequence of sortilin-cd peptide A (human) (Q13153 270-545): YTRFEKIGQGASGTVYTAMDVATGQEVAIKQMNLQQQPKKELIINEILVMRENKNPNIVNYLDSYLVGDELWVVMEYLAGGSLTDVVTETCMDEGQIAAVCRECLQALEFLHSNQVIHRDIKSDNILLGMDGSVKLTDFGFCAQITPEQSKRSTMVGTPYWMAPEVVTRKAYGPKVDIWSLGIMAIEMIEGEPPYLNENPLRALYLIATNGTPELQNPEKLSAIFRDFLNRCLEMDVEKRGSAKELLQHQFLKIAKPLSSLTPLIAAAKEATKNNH
Sequence of sortilin-cd peptide B (human) (Q13153 270-545): as above
Sequence of sortilin-cd peptide C (human) (Q13153 270-545): as above

| Kd (sortilin-cd peptide C) | Kd (sortilin-cd peptide B) | Kd (sortilin-cd peptide A) | Kd [1] | Binder |
| --- | --- | --- | --- | --- |
| 3.6 µM | 12.6 µM | 14.1 µM | – | B1 |
| – | – | – | 1.8 µM | B2 |
